In US7604990:

Tests used:
PDGFR-α (human) = PDGFR-α (human) (UniProt P16234); assay: cell-based or functional assay
PDGFR-β (human) = PDGFR-β (human) (UniProt P09619); assay: cell-based or functional assay
PDGFR-β (human), sequence (P09619 33-1106): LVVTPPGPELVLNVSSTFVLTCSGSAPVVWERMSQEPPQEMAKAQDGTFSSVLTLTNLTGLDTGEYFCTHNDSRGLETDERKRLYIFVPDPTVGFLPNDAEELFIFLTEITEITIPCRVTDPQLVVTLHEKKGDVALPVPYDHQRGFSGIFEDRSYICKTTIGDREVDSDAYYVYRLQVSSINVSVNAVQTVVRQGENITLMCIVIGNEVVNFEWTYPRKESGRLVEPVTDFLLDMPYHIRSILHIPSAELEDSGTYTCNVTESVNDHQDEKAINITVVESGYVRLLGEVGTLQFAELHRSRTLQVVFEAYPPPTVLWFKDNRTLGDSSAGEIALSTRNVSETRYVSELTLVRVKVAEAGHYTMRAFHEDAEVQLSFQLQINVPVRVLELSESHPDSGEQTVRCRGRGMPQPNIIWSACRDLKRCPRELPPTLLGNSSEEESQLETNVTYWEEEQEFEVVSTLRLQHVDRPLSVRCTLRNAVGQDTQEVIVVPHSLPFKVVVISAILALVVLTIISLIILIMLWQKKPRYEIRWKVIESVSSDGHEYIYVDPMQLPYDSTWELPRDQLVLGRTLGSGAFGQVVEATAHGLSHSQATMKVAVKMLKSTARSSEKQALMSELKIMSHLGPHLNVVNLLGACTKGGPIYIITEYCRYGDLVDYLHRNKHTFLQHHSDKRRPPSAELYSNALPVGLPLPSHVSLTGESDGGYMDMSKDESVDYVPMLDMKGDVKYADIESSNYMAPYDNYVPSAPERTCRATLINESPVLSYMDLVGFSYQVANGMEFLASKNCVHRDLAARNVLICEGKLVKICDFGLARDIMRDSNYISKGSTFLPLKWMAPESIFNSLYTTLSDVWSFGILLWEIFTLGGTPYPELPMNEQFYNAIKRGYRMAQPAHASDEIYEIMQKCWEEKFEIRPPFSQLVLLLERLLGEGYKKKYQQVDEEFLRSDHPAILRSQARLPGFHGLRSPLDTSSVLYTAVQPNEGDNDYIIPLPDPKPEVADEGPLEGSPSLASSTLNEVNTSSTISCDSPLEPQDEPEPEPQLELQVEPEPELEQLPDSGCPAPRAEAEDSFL

PDGFR-α (human), sequence (P16234 24-1089): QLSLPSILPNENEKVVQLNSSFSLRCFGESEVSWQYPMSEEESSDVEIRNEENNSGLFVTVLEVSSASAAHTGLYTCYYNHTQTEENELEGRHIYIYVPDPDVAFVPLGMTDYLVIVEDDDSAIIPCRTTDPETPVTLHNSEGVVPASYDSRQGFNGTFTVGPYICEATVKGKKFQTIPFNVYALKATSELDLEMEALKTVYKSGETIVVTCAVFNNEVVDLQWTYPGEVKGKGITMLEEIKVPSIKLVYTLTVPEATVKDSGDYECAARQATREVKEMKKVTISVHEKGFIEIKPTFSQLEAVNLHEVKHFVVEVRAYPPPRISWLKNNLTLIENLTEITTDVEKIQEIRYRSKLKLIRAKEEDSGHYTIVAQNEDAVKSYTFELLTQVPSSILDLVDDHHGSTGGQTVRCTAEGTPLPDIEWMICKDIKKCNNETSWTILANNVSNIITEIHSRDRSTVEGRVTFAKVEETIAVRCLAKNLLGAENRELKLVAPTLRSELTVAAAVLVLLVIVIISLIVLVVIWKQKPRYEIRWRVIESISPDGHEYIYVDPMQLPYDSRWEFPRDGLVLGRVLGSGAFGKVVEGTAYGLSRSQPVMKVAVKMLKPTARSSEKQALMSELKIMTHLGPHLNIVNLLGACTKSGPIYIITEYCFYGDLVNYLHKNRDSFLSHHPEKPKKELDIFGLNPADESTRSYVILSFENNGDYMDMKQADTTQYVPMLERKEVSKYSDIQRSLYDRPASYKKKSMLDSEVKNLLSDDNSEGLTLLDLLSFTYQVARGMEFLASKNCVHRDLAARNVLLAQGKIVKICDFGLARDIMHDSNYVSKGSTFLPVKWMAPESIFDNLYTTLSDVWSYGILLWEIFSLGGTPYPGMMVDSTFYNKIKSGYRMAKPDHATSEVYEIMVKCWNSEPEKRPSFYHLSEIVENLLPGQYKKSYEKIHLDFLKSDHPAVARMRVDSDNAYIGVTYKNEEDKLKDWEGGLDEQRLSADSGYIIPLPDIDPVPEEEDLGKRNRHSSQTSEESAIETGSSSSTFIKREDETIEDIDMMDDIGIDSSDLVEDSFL

Substance	GCTM2 expression (ELISA-based assay; hES cells treated 2 weeks in serum-free medium with S1P plus PDGF-AA) (PDGFR-α (human))	GCTM2 expression (ELISA-based assay; hES cells treated 2 weeks in serum-free medium with S1P plus PDGF-AB) (% more GCTM2+ than the controls) (PDGFR-β (human))	GCTM2 expression (ELISA-based assay; hES cells treated 2 weeks in serum-free medium with S1P plus PDGF-AB) (% more GCTM2+ than the controls) (PDGFR-α (human))
Human PDGF-AA (from UniProt P04085 87-211) (ligand)	220 % of control		
Human PDGF-AB (from UniProt P04085 87-211; P01127 82-190) (ligand)		153	153
